Consider seven substances from patent publication US20130004519A1.

Experiment [1] concerns the target His-tagged human tenascin-C (human) (UniProt P24821). The experiment is described as follows: pull-down on tenascin-C-Sepharose 4B, multiple reaction monitoring.
Experiment [2] has the same target. The experiment is described as follows: pull-down on tenascin-C-Sepharose 4B, spectral counting normalized to background proteins.
The target is the same in experiment [3]. The experiment can be described thus: pull-down from HEK293 conditioned medium on tenascin-C-Sepharose 4B, nanoLC-MSMS.
Experiment [4] deals with horse fibronectin coupled to CNBr-activated Sepharose 4B (horse) (UniProt Q28377). The experiment is described as follows: pull-down from HEK293 conditioned medium on horse fibronectin-Sepharose 4B, nanoLC-MSMS.
For experiment [5] the target is unchanged. The experiment can be described thus: pull-down from HEK293 conditioned medium on horse fibronectin-Sepharose 4B, nanoLC-MSMS; listed as background protein (control column count 44).
Experiment [6] has as its target His-tagged human tenascin-C (human) (UniProt P24821). The experiment can be described thus: pull-down from HEK293 conditioned medium on tenascin-C-Sepharose 4B, nanoLC-MSMS; listed as background protein (control column score 720).
Experiment [7] deals with horse fibronectin coupled to CNBr-activated Sepharose 4B (horse) (UniProt Q28377). The experiment can be described thus: pull-down from HEK293 conditioned medium on horse fibronectin-Sepharose 4B, nanoLC-MSMS; listed as background protein (control column score 720).
The target of experiment [8] is His-tagged human tenascin-C (human) (UniProt P24821). The experiment is described as follows: pull-down from HEK293 conditioned medium on tenascin-C-Sepharose 4B, nanoLC-MSMS; listed as background protein (control column count 44).
For experiment [9] the target is unchanged. The experiment is described as follows: pull-down from HEK293 conditioned medium on tenascin-C-Sepharose 4B, nanoLC-MSMS; listed as background protein (control column score 833).
Experiment [10] has the same target. The experiment is described as follows: pull-down from HEK293 conditioned medium on tenascin-C-Sepharose 4B, nanoLC-MSMS; listed as background protein (control column count 32).
For experiment [11], the target named is horse fibronectin coupled to CNBr-activated Sepharose 4B (horse) (UniProt Q28377). The experiment can be described thus: pull-down from HEK293 conditioned medium on horse fibronectin-Sepharose 4B, nanoLC-MSMS; listed as background protein (control column score 833).
For experiment [12] the target is unchanged. The experiment is described as follows: pull-down from HEK293 conditioned medium on horse fibronectin-Sepharose 4B, nanoLC-MSMS; listed as background protein (control column count 32).

Chain of horse fibronectin coupled to CNBr-activated Sepharose 4B (horse) (Q28377 32-2477 limits assumed): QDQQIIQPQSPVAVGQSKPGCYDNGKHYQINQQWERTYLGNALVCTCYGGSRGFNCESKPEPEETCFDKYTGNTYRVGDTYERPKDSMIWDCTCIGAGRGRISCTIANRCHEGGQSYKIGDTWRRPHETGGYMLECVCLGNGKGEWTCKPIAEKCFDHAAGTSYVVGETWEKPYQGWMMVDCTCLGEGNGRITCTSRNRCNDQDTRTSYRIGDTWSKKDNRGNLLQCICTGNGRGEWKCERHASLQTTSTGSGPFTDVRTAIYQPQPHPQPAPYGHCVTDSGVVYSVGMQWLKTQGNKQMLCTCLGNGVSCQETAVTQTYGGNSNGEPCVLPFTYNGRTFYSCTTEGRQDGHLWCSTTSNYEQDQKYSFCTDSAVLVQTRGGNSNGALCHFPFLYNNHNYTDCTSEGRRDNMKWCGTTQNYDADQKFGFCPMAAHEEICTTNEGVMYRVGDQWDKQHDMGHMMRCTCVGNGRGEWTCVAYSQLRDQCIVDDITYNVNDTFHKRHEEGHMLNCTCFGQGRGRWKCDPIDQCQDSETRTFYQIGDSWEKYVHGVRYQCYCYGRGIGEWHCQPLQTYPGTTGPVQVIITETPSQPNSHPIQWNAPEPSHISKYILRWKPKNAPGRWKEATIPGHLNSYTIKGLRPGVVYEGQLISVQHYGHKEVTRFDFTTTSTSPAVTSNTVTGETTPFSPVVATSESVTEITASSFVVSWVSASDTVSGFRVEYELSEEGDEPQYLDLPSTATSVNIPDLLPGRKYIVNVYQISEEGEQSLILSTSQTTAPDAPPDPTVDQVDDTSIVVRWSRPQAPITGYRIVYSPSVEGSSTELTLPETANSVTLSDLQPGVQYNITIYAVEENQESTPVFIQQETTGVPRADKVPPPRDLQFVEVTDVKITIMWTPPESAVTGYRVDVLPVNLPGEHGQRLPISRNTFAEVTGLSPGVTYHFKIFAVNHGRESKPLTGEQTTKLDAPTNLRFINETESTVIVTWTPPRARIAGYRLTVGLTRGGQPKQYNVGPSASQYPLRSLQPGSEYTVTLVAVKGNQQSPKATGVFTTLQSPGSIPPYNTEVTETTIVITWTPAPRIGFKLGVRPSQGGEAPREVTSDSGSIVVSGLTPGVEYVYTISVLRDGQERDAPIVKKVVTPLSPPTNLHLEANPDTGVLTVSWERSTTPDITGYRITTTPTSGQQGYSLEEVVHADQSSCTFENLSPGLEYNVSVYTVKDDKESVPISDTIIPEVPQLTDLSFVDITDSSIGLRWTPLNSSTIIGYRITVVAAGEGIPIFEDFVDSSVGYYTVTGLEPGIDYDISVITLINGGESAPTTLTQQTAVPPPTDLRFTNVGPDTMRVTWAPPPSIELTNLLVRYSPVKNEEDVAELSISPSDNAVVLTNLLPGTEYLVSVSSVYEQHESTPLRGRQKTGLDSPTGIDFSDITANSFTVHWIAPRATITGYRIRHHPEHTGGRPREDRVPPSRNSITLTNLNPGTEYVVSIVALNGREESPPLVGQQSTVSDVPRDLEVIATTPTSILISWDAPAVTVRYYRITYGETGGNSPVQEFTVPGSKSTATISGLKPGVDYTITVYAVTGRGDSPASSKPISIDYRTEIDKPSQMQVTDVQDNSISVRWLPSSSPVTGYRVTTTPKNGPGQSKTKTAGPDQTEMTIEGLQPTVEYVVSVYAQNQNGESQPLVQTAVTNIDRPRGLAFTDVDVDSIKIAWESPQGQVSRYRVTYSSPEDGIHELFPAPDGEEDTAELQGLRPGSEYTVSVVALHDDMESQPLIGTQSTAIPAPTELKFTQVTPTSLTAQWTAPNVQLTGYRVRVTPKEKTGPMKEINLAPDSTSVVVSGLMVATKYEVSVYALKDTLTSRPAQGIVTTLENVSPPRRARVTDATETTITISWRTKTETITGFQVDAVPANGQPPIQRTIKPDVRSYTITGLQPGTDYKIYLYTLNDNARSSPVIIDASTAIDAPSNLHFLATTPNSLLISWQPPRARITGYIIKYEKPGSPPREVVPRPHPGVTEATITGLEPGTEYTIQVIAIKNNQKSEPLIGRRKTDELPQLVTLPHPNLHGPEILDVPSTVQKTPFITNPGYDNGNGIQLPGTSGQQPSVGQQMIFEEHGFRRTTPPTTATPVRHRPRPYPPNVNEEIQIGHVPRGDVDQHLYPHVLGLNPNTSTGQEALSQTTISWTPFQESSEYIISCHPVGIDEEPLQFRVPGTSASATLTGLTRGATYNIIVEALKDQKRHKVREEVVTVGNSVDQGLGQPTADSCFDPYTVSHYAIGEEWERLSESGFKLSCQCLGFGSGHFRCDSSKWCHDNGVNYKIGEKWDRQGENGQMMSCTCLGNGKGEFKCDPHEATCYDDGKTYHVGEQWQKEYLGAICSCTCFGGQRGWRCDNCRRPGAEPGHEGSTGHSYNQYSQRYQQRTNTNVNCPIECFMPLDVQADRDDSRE
Chain of His-tagged human tenascin-C (human) (P24821 23-2201): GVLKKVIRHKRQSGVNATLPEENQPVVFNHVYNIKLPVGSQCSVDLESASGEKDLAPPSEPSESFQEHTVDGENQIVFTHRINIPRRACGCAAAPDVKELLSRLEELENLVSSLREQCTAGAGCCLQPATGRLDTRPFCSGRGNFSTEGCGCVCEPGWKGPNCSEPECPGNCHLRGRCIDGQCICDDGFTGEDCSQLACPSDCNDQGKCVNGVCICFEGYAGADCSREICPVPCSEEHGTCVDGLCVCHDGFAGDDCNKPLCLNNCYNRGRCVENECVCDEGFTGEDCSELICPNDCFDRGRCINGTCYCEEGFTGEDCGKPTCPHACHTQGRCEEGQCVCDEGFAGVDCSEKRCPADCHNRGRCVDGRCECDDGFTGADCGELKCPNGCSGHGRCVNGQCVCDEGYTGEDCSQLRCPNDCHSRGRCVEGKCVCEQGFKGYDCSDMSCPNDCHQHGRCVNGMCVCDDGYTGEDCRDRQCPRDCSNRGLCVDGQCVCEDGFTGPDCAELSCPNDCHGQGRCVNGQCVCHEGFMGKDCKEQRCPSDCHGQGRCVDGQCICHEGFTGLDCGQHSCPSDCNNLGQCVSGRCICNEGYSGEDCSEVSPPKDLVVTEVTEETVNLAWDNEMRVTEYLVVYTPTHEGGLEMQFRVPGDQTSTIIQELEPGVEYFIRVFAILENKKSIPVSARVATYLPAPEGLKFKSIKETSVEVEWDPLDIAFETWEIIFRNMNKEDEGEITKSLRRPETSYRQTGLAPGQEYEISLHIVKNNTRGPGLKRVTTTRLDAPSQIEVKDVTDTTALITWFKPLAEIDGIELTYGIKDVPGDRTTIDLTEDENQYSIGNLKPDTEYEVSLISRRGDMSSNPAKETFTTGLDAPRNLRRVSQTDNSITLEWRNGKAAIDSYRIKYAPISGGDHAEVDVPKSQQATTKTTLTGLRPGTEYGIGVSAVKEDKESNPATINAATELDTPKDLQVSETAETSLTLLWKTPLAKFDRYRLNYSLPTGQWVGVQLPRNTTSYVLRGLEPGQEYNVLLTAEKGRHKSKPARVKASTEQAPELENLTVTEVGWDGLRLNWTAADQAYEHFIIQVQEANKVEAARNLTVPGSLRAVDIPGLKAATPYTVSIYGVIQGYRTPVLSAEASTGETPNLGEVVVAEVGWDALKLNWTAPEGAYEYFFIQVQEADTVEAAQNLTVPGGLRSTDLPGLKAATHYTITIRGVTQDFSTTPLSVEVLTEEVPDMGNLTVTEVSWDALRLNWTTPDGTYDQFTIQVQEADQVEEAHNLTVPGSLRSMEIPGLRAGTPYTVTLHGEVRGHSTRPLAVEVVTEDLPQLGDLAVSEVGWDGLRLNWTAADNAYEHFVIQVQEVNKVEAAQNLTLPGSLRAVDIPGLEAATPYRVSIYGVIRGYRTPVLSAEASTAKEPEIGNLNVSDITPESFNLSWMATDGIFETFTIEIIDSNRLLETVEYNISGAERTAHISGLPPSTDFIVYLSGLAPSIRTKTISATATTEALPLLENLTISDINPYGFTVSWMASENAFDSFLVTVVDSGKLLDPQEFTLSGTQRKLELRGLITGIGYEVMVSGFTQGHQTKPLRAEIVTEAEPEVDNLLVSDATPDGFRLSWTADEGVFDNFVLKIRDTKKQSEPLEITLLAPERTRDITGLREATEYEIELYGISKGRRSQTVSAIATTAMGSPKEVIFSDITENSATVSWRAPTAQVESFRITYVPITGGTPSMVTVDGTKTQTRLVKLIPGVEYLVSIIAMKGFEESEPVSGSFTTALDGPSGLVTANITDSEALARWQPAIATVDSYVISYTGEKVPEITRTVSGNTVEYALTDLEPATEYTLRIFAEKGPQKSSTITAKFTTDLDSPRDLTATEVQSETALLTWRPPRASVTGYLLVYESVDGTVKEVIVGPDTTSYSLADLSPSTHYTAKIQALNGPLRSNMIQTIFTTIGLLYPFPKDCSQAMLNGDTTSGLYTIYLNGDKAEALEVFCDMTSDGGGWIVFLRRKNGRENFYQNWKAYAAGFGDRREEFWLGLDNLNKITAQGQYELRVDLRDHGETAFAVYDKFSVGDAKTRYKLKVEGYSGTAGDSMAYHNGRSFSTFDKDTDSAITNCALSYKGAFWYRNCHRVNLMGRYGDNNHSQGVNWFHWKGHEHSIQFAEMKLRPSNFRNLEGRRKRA

In [1], Clusterin (from UniProt P10909 23-449) had a normalized enrichment (MRM), tenascin-C against control of 2.1 fold. Also, the normalized enrichment (spectrum count), tenascin-C against control in experiment [2] was 4.2 fold. Also, in experiment [3], the MASCOT Score (tenascin-C) stood at 258 and the spectrum count (tenascin-C) was found to be 11.

With “Fibronectin from HEK293 conditioned medium (from UniProt P02751 32-2477)”, in experiment [4], the MASCOT Score (fibronectin) worked out at 2210 and the spectrum count (fibronectin) is 135.

“Fibronectin from HEK293 conditioned medium, P02751 32-2477”: the normalized enrichment (MRM), tenascin-C against control in [1] came to 4.8 fold. In experiment [2], this substance showed a normalized enrichment (spectrum count), tenascin-C against control of 19.2 fold. In experiment [3], this substance came in with an MASCOT Score (tenascin-C) of 544 and a spectrum count (tenascin-C) of 25.

In turn, Nidogen-2 (from UniProt Q14112 31-1375) had a normalized enrichment (MRM), tenascin-C against control in [1] of 2.2 fold. This substance also had a normalized enrichment (spectrum count), tenascin-C against control in experiment [2] of 5.8 fold. In experiment [3], this substance returned an MASCOT Score (tenascin-C) of 437 and a spectrum count (tenascin-C) of 15.

Regarding “Peptidyl-prolyl cis-trans isomerase A (PPIA) from HEK293 conditioned medium (from UniProt P62937 2-165) (enzyme)”, in [5], the spectrum count (fibronectin) worked out at 36. The MASCOT Score (tenascin-C) in [6] was determined as 675. Besides, in [7], the MASCOT Score (fibronectin) amounted to 676. In [8], this substance returned a spectrum count (tenascin-C) of 56.

In turn, “Phosphoglycerate kinase 1 (from UniProt P00558 2-417) (enzyme)” displayed a normalized enrichment (MRM), tenascin-C against control in [1] of 1.2 fold. The same substance came in with a normalized enrichment (spectrum count), tenascin-C against control in experiment [2] of 3.3 fold. In experiment [3], this substance returned an MASCOT Score (tenascin-C) of 402 and a spectrum count (tenascin-C) of 26.

“alpha-enolase (ENOA) from HEK293 conditioned medium (from UniProt P06733 2-434) (enzyme)” registered an MASCOT Score (tenascin-C) in experiment [9] of 1040. In experiment [10], this substance registered a spectrum count (tenascin-C) of 42. In addition, the MASCOT Score (fibronectin) in experiment [11] was determined as 701. The same substance came in with a spectrum count (fibronectin) in experiment [12] of 26.
